Measurements: patent US20140274782A1, “AFFINITY REAGENTS AND METHODS FOR DETECTION, PURIFICATION, AND PROTEOMIC ANALYSIS OF METHYLATED PROTEINS” (The Board of Trustees of the Leland Stanford Junior …, priority 2013, published 2014)
“And” between values parts separate entries of the source, which are not always exact repeats. Equal values may be shown once.

How the values were obtained:
3×MBT domain of L3MBTL1 = test: Triple SILAC pull-down, 3xMBT/3xMBTD355N ratio (cytoplasmic, nuclear and chromatin fractions of 293T cells); format: binding, human; settings: for Protein Ratios 3xMBT/D355N: pull-down by 3xMBT vs 3xMBTD355N; for 3xMBT/D355N UNC Heavy: experiment with UNC0638 in heavy SILAC media; for 3xMBT/D355N UNC Light: experiment with UNC0638 in light SILAC media;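 as to all read-outs here: proteins quantified with MaxQuant, requiring at least two unique peptides and quantification in both label directions, normalized to the mean of proteins from a digested loading control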
G9a and GLP = biological target: T1, G9a and GLP (Homo sapiens, UniProt Q96KQ7+Q9H9B1); test: Triple SILAC pull-down after UNC0638 treatment of 293T cells, DMSO/UNC0638 ratio of protein captured by 3×MBT; format: cell-based; settings: for Protein Ratios DMSO/UNC0638: SILAC ratio of protein captured by 3xMBT, 293T cells treated 24 hours with UNC0638 at 2.5 μM or DMSO; for Relative to UNC0638 UNC Heavy: UNC0638 in heavy SILAC media; for Relative to UNC0638 UNC Light: UNC0638 in light SILAC media; for Relative to UNC0638 Average: average of UNC Light and UNC Heavy experiments; for Candidate G9a/GLP target: reduced association with 3xMBT after UNC0638 treatment;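 as to all read-outs here: mass spectrometry (Q-Exactive) SILAC quantitation, DMSO/UNC0638 ratio computed after subtracting 3×MBTD355N mutant pull-down background, only proteins with at least twofold 3×MBT over mutant signal considered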
T1 construct: endogenous in cells; host or cells: HEK 293T
T1 sequence (Q96KQ7 2-1210 limits assumed): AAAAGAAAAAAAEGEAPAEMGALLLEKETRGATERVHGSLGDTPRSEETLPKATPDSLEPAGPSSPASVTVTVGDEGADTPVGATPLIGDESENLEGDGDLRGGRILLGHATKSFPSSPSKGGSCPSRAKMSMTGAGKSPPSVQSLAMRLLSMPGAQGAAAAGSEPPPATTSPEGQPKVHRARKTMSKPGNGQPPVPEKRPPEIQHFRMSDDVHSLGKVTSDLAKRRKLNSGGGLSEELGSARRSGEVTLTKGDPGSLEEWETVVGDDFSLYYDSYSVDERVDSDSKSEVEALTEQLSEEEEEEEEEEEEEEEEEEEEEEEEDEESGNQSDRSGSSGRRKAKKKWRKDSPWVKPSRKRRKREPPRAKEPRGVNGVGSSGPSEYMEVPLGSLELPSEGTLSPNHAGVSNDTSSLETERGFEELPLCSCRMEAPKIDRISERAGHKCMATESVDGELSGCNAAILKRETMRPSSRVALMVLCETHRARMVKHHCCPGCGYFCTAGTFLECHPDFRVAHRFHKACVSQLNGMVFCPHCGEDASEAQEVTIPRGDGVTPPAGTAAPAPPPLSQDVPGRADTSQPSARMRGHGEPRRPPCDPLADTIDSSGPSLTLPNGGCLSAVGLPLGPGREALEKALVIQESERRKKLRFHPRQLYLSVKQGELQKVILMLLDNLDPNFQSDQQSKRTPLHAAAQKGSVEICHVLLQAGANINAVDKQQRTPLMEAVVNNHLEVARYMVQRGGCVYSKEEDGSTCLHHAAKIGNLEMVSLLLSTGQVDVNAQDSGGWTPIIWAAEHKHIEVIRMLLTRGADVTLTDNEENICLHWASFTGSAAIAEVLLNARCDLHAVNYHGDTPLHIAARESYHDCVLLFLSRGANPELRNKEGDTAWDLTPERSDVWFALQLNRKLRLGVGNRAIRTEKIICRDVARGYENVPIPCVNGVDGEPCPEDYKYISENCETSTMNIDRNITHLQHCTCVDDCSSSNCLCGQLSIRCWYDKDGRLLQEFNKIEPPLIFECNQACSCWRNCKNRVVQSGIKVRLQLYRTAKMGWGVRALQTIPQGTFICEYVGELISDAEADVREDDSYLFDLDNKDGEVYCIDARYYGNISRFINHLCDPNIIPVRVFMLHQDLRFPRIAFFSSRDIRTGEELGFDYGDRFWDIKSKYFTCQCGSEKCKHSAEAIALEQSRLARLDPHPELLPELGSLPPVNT
T1 sequence (Q9H9B1 2-1298 limits assumed): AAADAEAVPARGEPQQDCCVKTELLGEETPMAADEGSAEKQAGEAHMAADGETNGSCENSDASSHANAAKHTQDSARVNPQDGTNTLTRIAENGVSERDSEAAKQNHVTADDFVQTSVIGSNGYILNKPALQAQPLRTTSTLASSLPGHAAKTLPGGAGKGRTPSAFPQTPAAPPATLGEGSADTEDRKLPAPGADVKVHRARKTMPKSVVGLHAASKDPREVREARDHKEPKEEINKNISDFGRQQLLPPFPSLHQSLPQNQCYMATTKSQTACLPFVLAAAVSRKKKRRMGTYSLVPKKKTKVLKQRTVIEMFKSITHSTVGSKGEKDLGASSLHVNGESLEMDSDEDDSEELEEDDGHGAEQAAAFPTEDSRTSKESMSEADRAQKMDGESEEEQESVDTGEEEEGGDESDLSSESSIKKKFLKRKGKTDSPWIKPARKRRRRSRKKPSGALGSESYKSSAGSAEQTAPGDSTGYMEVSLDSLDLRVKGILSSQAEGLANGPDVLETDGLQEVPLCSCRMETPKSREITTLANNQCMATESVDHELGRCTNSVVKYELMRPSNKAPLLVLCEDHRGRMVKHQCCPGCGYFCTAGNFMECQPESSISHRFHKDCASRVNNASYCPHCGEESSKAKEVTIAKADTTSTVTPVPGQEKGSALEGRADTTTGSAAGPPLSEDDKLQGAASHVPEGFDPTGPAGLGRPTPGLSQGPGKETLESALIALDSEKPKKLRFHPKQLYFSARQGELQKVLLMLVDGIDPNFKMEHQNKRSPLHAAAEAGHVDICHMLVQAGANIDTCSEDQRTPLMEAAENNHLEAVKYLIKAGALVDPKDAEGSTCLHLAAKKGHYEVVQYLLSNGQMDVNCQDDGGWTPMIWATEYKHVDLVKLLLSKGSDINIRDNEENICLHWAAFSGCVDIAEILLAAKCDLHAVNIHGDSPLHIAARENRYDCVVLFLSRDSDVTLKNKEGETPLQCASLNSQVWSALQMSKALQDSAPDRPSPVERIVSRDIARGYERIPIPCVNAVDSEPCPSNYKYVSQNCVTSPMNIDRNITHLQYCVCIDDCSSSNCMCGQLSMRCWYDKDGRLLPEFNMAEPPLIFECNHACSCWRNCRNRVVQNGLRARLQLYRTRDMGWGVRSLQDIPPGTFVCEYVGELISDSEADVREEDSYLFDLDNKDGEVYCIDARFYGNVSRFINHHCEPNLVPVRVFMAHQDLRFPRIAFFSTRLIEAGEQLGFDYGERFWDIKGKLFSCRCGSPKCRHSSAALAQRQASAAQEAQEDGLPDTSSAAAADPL

[1] = SILAC ratio, pull-down 3xMBT vs 3xMBTD355N
[2] = SILAC ratio DMSO/UNC0638 of protein pulled down with 3xMBT
[3] = SILAC ratio 3xMBT vs 3xMBTD355N pull-down, 293T cells, all values in log base 2
[4] = SILAC ratio DMSO relative to UNC0638, pull-down with 3xMBT, all values in log base 2

Substance | Protein Ratios 3xMBT/D355N (3×MBT domain of L3MBTL1; SILAC ratio, 293T cells) | Protein Ratios DMSO/UNC0638 (G9a and GLP) | 3xMBT/D355N UNC Heavy (3×MBT domain of L3MBTL1; [1]) | 3xMBT/D355N UNC Light (3×MBT domain of L3MBTL1; [1]) | Relative to UNC0638 UNC Heavy (G9a and GLP; [2]) | Relative to UNC0638 UNC Light (G9a and GLP; [2]) [log base 2] | Relative to UNC0638 Average (G9a and GLP) | 3xMBT/D355N UNC Heavy (3×MBT domain of L3MBTL1; [3]) [log base 2] | 3xMBT/D355N UNC Light (3×MBT domain of L3MBTL1; [3]) [log base 2] | Relative to UNC0638 UNC Heavy (G9a and GLP; [4]) [log base 2] | Relative to UNC0638 UNC Light (G9a and GLP; [4]) [log base 2] | Relative to UNC0638 Average (G9a and GLP; all values in log base 2) [log base 2] | Candidate G9a/GLP target (G9a and GLP)
SWI/SNF-related matrix-associated actin-dependent regulator of chromatin subfamily A member 5 | 5.8 | 1.3 |  |  |  |  |  |  |  |  |  |  | 
MPG |  |  | 1.39 log base 2 | 1.87 log base 2 | 0.52 log base 2 | −0.04 | 0.24 log base 2 |  |  |  |  |  | 
RPTOR |  |  |  |  |  |  |  | 1.86 | 1.58 | 0.54 | −0.81 | −0.14 | 
DDX21 |  |  | 0.55 log base 2 | 1.00 log base 2 |  | 0.14 | 0.14 log base 2 |  |  |  |  |  | 
GSK3B |  |  | 1.95 log base 2 | 2.25 log base 2 | 0.41 log base 2 | 0.03 | 0.22 log base 2 |  |  |  |  |  | 
CHD4 |  |  | 2.24 log base 2 | 3.63 log base 2 | 0.34 log base 2 | 0.14 | 0.24 log base 2 |  |  |  |  |  | 
DNA-dependent protein kinase catalytic subunit | 4.5 | 1.5 |  |  |  |  |  |  |  |  |  |  | 
CD3EAP |  |  |  |  |  |  |  | 2.30 | 1.86 | −0.02 | 0.01 | 0.00 | 
SH3GL1 |  |  | 1.99 log base 2 | 2.38 log base 2 | 0.60 log base 2 | −0.23 | 0.19 log base 2 |  |  |  |  |  | 
ZNF207 |  |  | 2.48 log base 2 | 3.12 log base 2 | 0.34 log base 2 | 0.09 | 0.21 log base 2 |  |  |  |  |  | 
NUDT21 |  |  | 3.65 log base 2 | 3.15 log base 2 | 0.20 log base 2 | 0.04 | 0.12 log base 2 |  |  |  |  |  | 
PTBP1 |  |  | 2.61 log base 2 | 3.23 log base 2 | 0.33 log base 2 | 0.25 | 0.29 log base 2 |  |  |  |  |  | 
PRKDC |  |  | 1.96 log base 2 | 2.39 log base 2 | 0.21 log base 2 | 0.95 | 0.58 log base 2 |  |  |  |  |  | ✓
DNM2 |  |  | 0.05 log base 2 | 0.57 log base 2 |  | 0.54 | 0.54 log base 2 |  |  |  |  |  | 
RECQL |  |  | 3.43 log base 2 | 5.03 log base 2 | 0.71 log base 2 | 0.21 | 0.46 log base 2 |  |  |  |  |  | ✓
FXR1 |  |  | 1.60 log base 2 | 1.73 log base 2 | 1.23 log base 2 | −1.01 | 0.11 log base 2 |  |  |  |  |  | 
GAPDH |  |  |  |  |  |  |  | 1.86 | 1.59 | 0.14 | −0.24 | −0.05 | 
SUPT16H |  |  | 3.66 log base 2 | 4.01 log base 2 | 0.04 log base 2 | 0.23 | 0.13 log base 2 |  |  |  |  |  | 
TOP2B |  |  | 1.61 log base 2 | 2.04 log base 2 | 0.21 log base 2 | 0.21 | 0.21 log base 2 |  |  |  |  |  | 
DDX6 |  |  | 3.18 log base 2 | 3.05 log base 2 | 0.14 log base 2 | 0.22 | 0.18 log base 2 |  |  |  |  |  | 
FOCAD |  |  | 1.83 log base 2 | 2.73 log base 2 | 0.20 log base 2 | 0.20 | 0.20 log base 2 |  |  |  |  |  | 
HNRNPK |  |  | 3.13 log base 2 and 2.55 log base 2 | 3.64 log base 2 and 3.36 log base 2 | 0.17 log base 2 and 0.13 log base 2 | 0.10 | 0.13 log base 2 and 0.11 log base 2 |  |  |  |  |  | 
